In PMC11377762:

Target: human wild-type D3R (HASS-FLAG-EGFP-3C protease-D3R in pcDNA4/TO) (human) (UniProt P35462)
UniProt P35462, sequence (P35462 whole entry): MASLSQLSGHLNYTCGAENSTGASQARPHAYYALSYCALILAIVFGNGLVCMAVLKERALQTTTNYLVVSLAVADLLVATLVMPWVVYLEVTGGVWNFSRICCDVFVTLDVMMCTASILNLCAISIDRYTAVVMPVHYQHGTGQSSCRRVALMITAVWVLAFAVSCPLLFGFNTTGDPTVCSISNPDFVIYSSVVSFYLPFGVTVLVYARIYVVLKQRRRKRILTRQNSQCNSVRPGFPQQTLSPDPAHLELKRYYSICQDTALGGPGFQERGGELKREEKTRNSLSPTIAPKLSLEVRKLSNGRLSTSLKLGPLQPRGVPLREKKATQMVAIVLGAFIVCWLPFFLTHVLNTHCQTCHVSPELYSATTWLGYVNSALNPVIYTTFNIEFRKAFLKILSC

- potency of FOB02-04A at D3R in the TRUPATH BRET2 assay in HEK293T cells, GOA against Gi1: 135 fold
Substance: GαOA-RLuc8 (from UniProt P09471 1-354) (natural protein)
